Results taken from IntAct's records for PubMed 23000721.

B1: Chitin biosynthesis protein CHS5 (Saccharomyces cerevisiae), Q12114 (parent)
chain: MSSVDVLLTVGKLDASLALLTTQDHHVIEFPTVLLPENVKAGSIIKMQVSQNLEEEKKQRNHFKSIQAKILEKYGTHKPESPVLKIVNVTQTSCVLAWDPLKLGSAKLKSLILYRKGIRSMVIPNPFKVTTTKISGLSVDTPYEFQLKLITTSGTLWSEKVILRTHKMTDMSGITVCLGPLDPLKEISDLQISQCLSHIGARPLQRHVAIDTTHFVCNDLDNEESNEELIRAKHNNIPIVRPEWVRACEVEKRIVGVRGFYLDADQSILKNYTFPPVNEEELSYSKENEPVAEVADENKMPEDTTDVEQVASPNDNESNPSEAKEQGEKSGHETAPVSPVEDPLHASTALENETTIETVNPSVRSLKSEPVGTPNIEENKADSSAEAVVEEPNEAVAESSPNEEATGQKSEDTDTHSNEQADNGFVQTEEVAENNITTESAGENNEPADDAAMEFGRPEAEIETPEVNESIEDANEPAEDSNEPVEDSNKPVKDSNKPVEDSNKPVEDSNKPVEDSNKPVEDANEPVEDTSEPVEDAGEPVQETNEFTTDIASPRHQEEDIELEAEPKDATESVAVEPSNEDVKPEEKGSEAEDDINNVSKEAASGESTTHQKTEASASLESSAVTEEQETTEAEVNTDDVLSTKEAKKNTGNSNSNKKKNKKNKKKGKKK
partner: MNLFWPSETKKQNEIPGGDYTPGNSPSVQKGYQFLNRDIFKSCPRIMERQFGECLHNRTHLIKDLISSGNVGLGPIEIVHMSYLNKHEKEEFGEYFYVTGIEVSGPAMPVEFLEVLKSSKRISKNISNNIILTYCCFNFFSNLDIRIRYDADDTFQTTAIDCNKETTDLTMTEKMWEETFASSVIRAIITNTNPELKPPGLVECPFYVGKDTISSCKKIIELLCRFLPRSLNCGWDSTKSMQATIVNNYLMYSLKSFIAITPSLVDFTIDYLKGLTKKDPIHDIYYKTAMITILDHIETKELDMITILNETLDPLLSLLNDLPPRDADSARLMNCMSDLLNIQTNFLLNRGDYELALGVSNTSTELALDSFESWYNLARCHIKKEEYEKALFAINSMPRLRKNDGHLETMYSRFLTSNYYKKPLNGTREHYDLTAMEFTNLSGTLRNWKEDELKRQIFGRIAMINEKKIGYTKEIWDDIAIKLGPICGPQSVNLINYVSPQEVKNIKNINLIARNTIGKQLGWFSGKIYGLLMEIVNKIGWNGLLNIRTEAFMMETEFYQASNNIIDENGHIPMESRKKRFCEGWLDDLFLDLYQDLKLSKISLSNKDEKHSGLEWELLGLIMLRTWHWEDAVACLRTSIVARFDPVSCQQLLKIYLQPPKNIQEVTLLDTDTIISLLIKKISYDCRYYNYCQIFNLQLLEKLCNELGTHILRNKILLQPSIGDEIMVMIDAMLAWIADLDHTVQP
B2: Chitin biosynthesis protein CHS6 (Saccharomyces cerevisiae), P40955 (parent)
chain: B1 partner
partner: B1 chain

Variants of: B1
Conditions: with chs6_yeast CHS6, P40955

effect of a mutation on the interaction | Variant
disrupting interaction | Q67E
disrupting interaction | F63E

Variants of: B2
Conditions: with chs5_yeast CHS5, Q12114

effect of a mutation on the interaction | Variant
disrupting interaction | I305R
